In PMC9585510:

Experiments:
[1] = molecular target: Marchantia polymorpha plant cysteine oxidase (MpPCO), with N-terminal His6-tag (Marchantia polymorpha)
[2] = molecular target: MpPCOc, Marchantia polymorpha plant cysteine oxidase with the N-terminal His6-tag removed (Marchantia polymorpha)

Molecule | KM for the peptide substrate in steady-state kinetics of Nt-Cys oxidation (LC-MS; atmospheric O2, 25 °C, 50 mM bis-tris propane, 50 mM NaCl, 1 mM TCEP, pH 8.0; fitted with substrate inhibition) [1] | KM for the peptide substrate in steady-state kinetics of Nt-Cys oxidation (LC-MS; atmospheric O2, 25 °C, 50 mM bis-tris propane, 50 mM NaCl, 1 mM TCEP, pH 8.0) [2]
AtRAP2(2-15), 14-mer peptide representing the N-terminus of the A. thaliana ERF-VIIs RAP2.2 and RAP2.12 | 11 μM | 
CRMNKRLGKGETGL |  | 509 μM
